Sequences and labels used below:
B1: [Leu^8 ] human PTH (protein)
chain: SVSEIQLLHNLGKHLNSMERVEWLRKKLQDVHNFVALGAPLAPRDAGSQRPRKKEDNVLVESHEKSLGEADKADVNVLTKAKSQ
B2: [Leu^8,18 ] human PTH: human PTH (1-84) mutein in which methionine residues at the 8- and 18-positions were substituted by leucine (protein)
chain: SVSEIQLLHNLGKHLNSLERVEWLRKKLQDVHNFVALGAPLAPRDAGSQRPRKKEDNVLVESHEKSLGEADKADVNVLTKAKSQ
B3: [Cys^35 ] human PTH: human PTH (1-84) mutein in which valine at the 35-position was substituted by cysteine (protein)
chain: SVSEIQLMHNLGKHLNSMERVEWLRKKLQDVHNFCALGAPLAPRDAGSQRPRKKEDNVLVESHEKSLGEADKADVNVLTKAKSQ
B4: [Leu^18 ] human PTH: human PTH (1-84) mutein in which methionine at the 18-position was substituted by leucine (protein)
chain: SVSEIQLMHNLGKHLNSLERVEWLRKKLQDVHNFVALGAPLAPRDAGSQRPRKKEDNVLVESHEKSLGEADKADVNVLTKAKSQ

Data on 10 molecules can be found in patent publication US5856138A, “Human parathyroid hormone muteins and production thereof” (Takeda Chemical Industries, Ltd., priority 1991, dated 1999).

In one data set the target is human PTH receptor.
Assay: not given
Conditions: not given
Regarding [Cys35] human PTH (1-84) (ligand), the cAMP production in MC3T3-EI cells; specific activity on the natural type human PTH (relative to natural type human PTH) was 0.6. Turning to [Leu18] human PTH (1-84) (ligand), the cAMP production in MC3T3-EI cells; specific activity on the natural type human PTH (relative to natural type human PTH) was 0.2. Molecule [Leu8] human PTH (1-84) (ligand) yielded a cAMP production in MC3T3-EI cells; specific activity on the natural type human PTH (relative to natural type human PTH) of 1.

natural type human PTH (1-84) (ligand): the cAMP production in MC3T3-EI cells; specific activity on the natural type human PTH (relative to natural type human PTH) came out at 1. Molecule [Leu8,18] human PTH (1-84) (ligand) gave a cAMP production in MC3T3-EI cells; specific activity on the natural type human PTH (relative to natural type human PTH) of 0.3.

The target of a further data set is T1, human PTH receptor (Mus musculus, UniProt P41593).
T1 construct: mouse cranial bone-derived osteoblast-like cell strain MC3T3-EI cultivated on a 96-well multiplate; endogenous in cells; host or cells: MC3T3-E1 (mouse cranial bone-derived osteoblast-like cells)
T1 sequence (P41593 27-591): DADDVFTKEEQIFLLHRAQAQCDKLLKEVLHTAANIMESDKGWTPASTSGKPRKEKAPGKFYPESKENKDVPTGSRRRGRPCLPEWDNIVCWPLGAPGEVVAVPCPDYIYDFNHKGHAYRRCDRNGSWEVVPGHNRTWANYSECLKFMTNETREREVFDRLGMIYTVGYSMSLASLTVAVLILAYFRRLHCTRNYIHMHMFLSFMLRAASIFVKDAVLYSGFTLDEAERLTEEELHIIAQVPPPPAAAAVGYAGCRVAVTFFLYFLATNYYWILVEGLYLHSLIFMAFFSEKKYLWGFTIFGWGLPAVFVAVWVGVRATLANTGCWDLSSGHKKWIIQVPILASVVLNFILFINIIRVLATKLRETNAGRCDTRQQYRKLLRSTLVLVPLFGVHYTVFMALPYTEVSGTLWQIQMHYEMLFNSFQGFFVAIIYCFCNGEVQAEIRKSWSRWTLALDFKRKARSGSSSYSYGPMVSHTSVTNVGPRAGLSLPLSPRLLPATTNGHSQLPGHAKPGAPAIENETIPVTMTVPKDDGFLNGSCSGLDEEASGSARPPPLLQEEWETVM
Description: cAMP production in osteoblast-like MC3T3-EI cells (modified method of Shigeno et al.). As to conditions: specific activity of the muteins on the natural type human PTH (=1.0), 0.01-100 nM analogue, room temperature, 30 minutes. Type of data set: cell-based. As for the experimental part:
The biological activity of human PTH muteins obtained in Examples 2 to 6 and natural type human PTH were evaluated by a modification of the method reported by Shigeno et al. [The Journal of Biological Chemistry 263. 18369-18377 (1988)]. A culture solution (Hank's solution containing 20 mM N-2-hydroxyethylpiperazine-N'-2-ethanesulfonic acid (HEPES), 0.1% bovine serum albumin (BSA) and 0.5 mM isobutylmethylxanthine) containing 0.01, 0.1, 1, 10 or 100 nM analogue was added in an amount of 100 μl to mouse cranial bone-derived osteoblast-like cell strain MC3T3-EI cultivated on a 96-well multiplate (Nunclon, Nunc), followed by reaction at room temperature for 30 minutes. After addition of 100 μl of 0.2N hydrochloric acid, the mixture was immersed in boiling water for 2.5 minutes, and cyclic adenosine monophosphate (cAMP) produced by a human PTH receptor was extracted from the cells. The total cAMP in the culture solution and the cells was assayed using a commercial radioimmunoassay kit (cyclic AMP [^125 I] kit "Du Pont-Daiichil", Daiichi Kagaku Yakuhin). An increase in cAMP production depending on the concentration of the human PTH mutein added was always observed. The specific activity of the muteins on the natural type human PTH is as follows: […]
For “Human PTH: natural type parathyroid hormone, polypeptide hormone consisting of 84 amino acids [reference compound]”, the “Specific Activity” value came to 1.0.

Turning to B1, the “Specific Activity” value is 1.0. Regarding B2, the “Specific Activity” value came out at 0.3.

B3: the “Specific Activity” value came out at 0.6. Same read-out and setting: to B4 belongs 0.2.
